# T1: human PAR4 (Homo sapiens, UniProt Q96RI0, INS25FLNCCPGCCMEP)
# T1 construct: expressed in transfected cells; host or cells: COS-1
# T1 sequence (Q96RI0 with tags, fused parts or gaps): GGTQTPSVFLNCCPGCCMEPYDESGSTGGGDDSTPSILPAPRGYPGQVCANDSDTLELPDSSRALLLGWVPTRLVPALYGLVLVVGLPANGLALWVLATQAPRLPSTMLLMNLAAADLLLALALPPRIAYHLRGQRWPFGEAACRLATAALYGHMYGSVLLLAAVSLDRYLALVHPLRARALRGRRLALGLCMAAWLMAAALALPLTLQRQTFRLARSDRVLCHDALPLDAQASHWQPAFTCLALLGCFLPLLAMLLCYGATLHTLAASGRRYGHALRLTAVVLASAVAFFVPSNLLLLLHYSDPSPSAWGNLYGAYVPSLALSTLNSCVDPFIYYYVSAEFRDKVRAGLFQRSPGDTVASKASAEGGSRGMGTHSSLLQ
# T2: human PAR1 (Homo sapiens, UniProt P25116, INS26FLNCCPGCCMEPA)
# T2 construct: expressed in transfected cells; host or cells: COS-1
# T2 sequence (P25116 with tags, fused parts or gaps limits assumed): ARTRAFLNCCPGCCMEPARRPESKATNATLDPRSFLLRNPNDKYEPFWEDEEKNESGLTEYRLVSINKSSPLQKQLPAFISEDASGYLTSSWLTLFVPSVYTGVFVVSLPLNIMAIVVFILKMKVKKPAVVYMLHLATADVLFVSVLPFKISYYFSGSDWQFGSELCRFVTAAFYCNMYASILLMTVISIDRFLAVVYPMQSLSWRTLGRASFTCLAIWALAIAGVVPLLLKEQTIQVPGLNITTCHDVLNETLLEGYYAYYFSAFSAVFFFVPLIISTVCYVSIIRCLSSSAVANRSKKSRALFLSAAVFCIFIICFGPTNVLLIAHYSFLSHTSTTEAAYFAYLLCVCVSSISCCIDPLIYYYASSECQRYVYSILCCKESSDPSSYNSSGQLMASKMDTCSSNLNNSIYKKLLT
# B1: ISP1: recombinant implantation serine proteinase 1 expressed in Pichia pastoris, also known as Mouse Prss28 (protein, UniProt Q924N9 27-274, looked up)
# Serine protease 28: KPVGIVGGQRTPPGKWPWQVSLRMYSYEVNSWVHICGGSIIHPQWILTAAHCIQSQDADPAVYRVQVGEVYLYKEQELLNISRIIIHPDYNDVSKRFDLALMQLTALLVTSTNVSPVSLPKDSSTFDSTDQCWLVGWGNLLQRVPLQPPYQLHEVKIPIQDNKSCKRAYRKKSSDEHKAVAIFDDMLCAGTSGRGPCFGDSGGPLVCWKSNKWIQVGVVSKGIDCSNNLPSIFSRVQSSLAWIHQHIQ
# modifications: recombinant, Pichia pastoris-expressed
# notes: recombinant implantation serine proteinase 1 expressed in Pichia pastoris, also known as Mouse Prss28
# Assays:
# thrombin = target: T3, thrombin (Homo sapiens, UniProt P00734); experiment: Effect of ISP1 on enzyme activity of thrombin; assay type: biochemical; settings: data not shown
# T3 construct: High activity human thrombin (cat. number 605195, lot B37722; 3,186 NIH units/mg) was from Calbiochem; purchased Calbiochem 605195
# human PAR4 = target: T1, human PAR4; experiment: Release of N-terminal BAB motif from PAR4 on COS-1 cells; assay type: cell-based; settings: 0.1 and 0.5 units per ml, 37°C, 30 minutes
# Source text: (§1) The biarsenical fluorochrome binding domain (BAB), containing a tetra-cysteine motif, […] for PAR1, […] for PAR2 and […] for PAR4 was inserted into the receptor N-terminal domains by introducing corresponding oligonucleotides just downstream of the signal peptide of PARs, after A26 for human PAR1, Q27 for human PAR2 and V25 for human PAR4. The PAR DNA constructs containing the N-terminal BAB domain and a YFP C-terminal fluorochrome tag were cloned in pCDNA3.1+ at the restriction enzyme sites between Eco RI and Xba I. COS-1 cells obtained from ATCC (Manassas, VA USA) were transected with the PAR constructs with the FuGENE6 transfection reagent (Roche Applied Bioscience). The expression level of the expressed receptor was quantified using a fluorescence plate reader, (Victor 4X, Perkin-Elmer), and confocal microscopy was used to monitor the receptor location by visualizing the receptor YFP tag. […] Then, the peptide(s) containing the receptor BAB tetracysteine motif released by proteinases from the receptor N-terminus into the cell culture supernatant was quantified using a Victor X4 fluorescent plate reader with an excitation wavelength of 540 nm and an emission wavelength monitored at 615 nm. […]
# human PAR1 = target: T2, human PAR1; experiment: Release of N-terminal BAB motif from PAR1 on COS-1 cells; assay type: cell-based; settings: 0.1 and 0.5 units per ml, 37°C, 30 minutes
# Source text: as §1
# trypsin = target: T4, trypsin (Sus scrofa, UniProt P00761); experiment: Effect of ISP1 on enzyme activity of trypsin; assay type: biochemical; settings: data not shown
# T4 construct: Porcine trypsin (cat. number T-3030; 14,500 units/mg); purchased Sigma-Aldrich T-3030 (printed as T0303); host or cells: porcine pancreas
# T4 sequence (P00761 9-231): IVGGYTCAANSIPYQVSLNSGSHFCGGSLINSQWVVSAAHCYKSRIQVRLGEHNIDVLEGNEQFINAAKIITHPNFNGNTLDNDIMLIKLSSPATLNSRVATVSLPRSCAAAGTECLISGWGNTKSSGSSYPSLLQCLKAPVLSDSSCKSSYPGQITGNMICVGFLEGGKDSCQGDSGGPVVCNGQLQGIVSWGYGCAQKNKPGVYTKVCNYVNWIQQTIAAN
molecule,measurement,setting,value
B1,Inhibitory effect on enzyme activity of thrombin,thrombin,doesn't have any inhibitory effect
same,Release of PAR4 N-terminal BAB domain (PAR cleavage activity),human PAR4,significant concentration-dependent PAR cleavage activity
same,Release of PAR1 N-terminal BAB domain (PAR cleavage activity),human PAR1,significant concentration-dependent PAR cleavage activity
same,Inhibitory effect on enzyme activity of trypsin,trypsin,doesn't have any inhibitory effect

# Source: paper PMC3223204, “Implantation Serine Proteinase 1 Exhibits Mixed Substrate Specificity that Silences Signaling via Proteinase-Activated Receptors” (PLoS ONE, 2011)
